# Molecular target: plasma purified human complement protein C3 (human) (UniProt P01024)
# Experiment: cell-based or functional assay
# Chain of plasma purified human complement protein C3 (human) (P01024 23-667, chain 1 of 2): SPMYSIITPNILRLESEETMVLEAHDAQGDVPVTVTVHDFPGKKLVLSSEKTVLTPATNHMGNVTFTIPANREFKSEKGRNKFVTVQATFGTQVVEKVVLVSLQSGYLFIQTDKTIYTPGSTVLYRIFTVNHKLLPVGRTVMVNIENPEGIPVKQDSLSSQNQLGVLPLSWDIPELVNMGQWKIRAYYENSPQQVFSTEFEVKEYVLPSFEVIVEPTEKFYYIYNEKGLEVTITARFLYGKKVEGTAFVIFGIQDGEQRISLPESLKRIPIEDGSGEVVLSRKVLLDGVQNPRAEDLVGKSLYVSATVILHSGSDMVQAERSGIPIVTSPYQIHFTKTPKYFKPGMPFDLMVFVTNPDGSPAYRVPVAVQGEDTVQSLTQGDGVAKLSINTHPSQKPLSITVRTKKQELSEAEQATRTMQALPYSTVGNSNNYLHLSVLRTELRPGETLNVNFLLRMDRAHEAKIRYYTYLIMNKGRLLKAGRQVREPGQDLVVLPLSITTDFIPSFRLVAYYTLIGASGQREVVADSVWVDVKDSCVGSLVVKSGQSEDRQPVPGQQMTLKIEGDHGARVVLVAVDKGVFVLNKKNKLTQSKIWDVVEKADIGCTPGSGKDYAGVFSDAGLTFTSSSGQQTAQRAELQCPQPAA
# Chain of plasma purified human complement protein C3 (human) (P01024 672-1663, chain 2 of 2): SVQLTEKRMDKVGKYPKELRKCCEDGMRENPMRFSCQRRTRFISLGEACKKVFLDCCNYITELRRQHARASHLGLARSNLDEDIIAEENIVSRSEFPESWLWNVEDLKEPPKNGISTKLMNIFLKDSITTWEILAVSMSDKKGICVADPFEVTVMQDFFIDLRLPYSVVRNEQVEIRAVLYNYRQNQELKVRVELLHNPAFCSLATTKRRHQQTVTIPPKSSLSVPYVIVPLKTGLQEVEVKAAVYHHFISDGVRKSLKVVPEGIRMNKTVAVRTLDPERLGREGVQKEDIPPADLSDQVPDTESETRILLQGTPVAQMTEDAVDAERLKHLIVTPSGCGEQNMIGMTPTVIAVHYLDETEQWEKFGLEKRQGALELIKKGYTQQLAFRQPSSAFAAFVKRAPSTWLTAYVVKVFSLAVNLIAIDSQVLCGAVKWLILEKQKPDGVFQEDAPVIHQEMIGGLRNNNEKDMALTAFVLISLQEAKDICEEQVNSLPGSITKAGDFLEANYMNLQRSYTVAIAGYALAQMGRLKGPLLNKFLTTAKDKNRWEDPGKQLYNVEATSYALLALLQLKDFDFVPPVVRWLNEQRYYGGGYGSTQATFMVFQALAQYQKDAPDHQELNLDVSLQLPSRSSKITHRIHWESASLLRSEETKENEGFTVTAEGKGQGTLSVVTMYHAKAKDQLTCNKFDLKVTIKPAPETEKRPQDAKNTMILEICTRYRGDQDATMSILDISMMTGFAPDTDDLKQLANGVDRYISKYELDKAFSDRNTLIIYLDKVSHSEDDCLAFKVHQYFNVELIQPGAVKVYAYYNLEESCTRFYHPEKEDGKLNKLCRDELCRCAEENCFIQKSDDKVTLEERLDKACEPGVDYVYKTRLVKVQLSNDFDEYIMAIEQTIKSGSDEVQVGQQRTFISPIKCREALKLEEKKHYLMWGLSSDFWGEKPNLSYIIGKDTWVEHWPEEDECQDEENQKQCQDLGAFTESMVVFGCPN
EC50 hC3 cleavage [nM],EC50 of hC3 cleavage [nM],Binder
7.82,,MTSP-1 protease domain Q38H/I41S/D60bT/F60eS/Y60gW/ins97aV/F97D/F99L/C122S/G151H/Q175L/Q192E (enzyme) VVGGTDADEGEWPWQVSLHALGHGHSCGASLISPNWLVSAAHCYIDTRGSRWSDPTQWTAFLGLHDQSQRSAPGVQERRLKRIISHPFFNDDVTLDYDIALLELEKPAEYSSMVRPISLPDASHVFPAGKAIWVTGWGHTQYGGTHALILQKGEIRVINQTTCENLLPQLITPRMMCVGFLSGGVDSCEGDSGGPLSSVEADGRIFQAGVVSWGDGCAQRNKPGVYTRLPLFRDWIKENTGV
3.19,,MTSP-1 protease domain Q38H/I41S/D60bT/F60eS/Y60gW/ins97aV/T98P/F99L/C122S/G151H/Q175L/Q192E (enzyme) VVGGTDADEGEWPWQVSLHALGHGHSCGASLISPNWLVSAAHCYIDTRGSRWSDPTQWTAFLGLHDQSQRSAPGVQERRLKRIISHPFFNDFVPLDYDIALLELEKPAEYSSMVRPISLPDASHVFPAGKAIWVTGWGHTQYGGTHALILQKGEIRVINQTTCENLLPQLITPRMMCVGFLSGGVDSCEGDSGGPLSSVEADGRIFQAGVVSWGDGCAQRNKPGVYTRLPLFRDWIKENTGV
10.4,,MTSP-1 protease domain Q38H/I41S/D60bT/Y60gW/ins97aV/F97D/T98P/F99L/C122S/G151H/Q175L/Q192E (enzyme) VVGGTDADEGEWPWQVSLHALGHGHSCGASLISPNWLVSAAHCYIDTRGFRWSDPTQWTAFLGLHDQSQRSAPGVQERRLKRIISHPFFNDDVPLDYDIALLELEKPAEYSSMVRPISLPDASHVFPAGKAIWVTGWGHTQYGGTHALILQKGEIRVINQTTCENLLPQLITPRMMCVGFLSGGVDSCEGDSGGPLSSVEADGRIFQAGVVSWGDGCAQRNKPGVYTRLPLFRDWIKENTGV
1.31,,MTSP-1 protease domain Q38H/I41S/D60bT/F60eS/Y60gW/ins97aV/F97D/T98P/F99L/C122S/G151H/Q175L (enzyme) VVGGTDADEGEWPWQVSLHALGHGHSCGASLISPNWLVSAAHCYIDTRGSRWSDPTQWTAFLGLHDQSQRSAPGVQERRLKRIISHPFFNDDVPLDYDIALLELEKPAEYSSMVRPISLPDASHVFPAGKAIWVTGWGHTQYGGTHALILQKGEIRVINQTTCENLLPQLITPRMMCVGFLSGGVDSCQGDSGGPLSSVEADGRIFQAGVVSWGDGCAQRNKPGVYTRLPLFRDWIKENTGV
11.5,,MTSP-1 protease domain Q38H/I41S/D60bT/F60eS/Y60gW/ins97aV/F97D/T98P/C122S/G151H/Q175L/Q192E (enzyme) VVGGTDADEGEWPWQVSLHALGHGHSCGASLISPNWLVSAAHCYIDTRGSRWSDPTQWTAFLGLHDQSQRSAPGVQERRLKRIISHPFFNDDVPFDYDIALLELEKPAEYSSMVRPISLPDASHVFPAGKAIWVTGWGHTQYGGTHALILQKGEIRVINQTTCENLLPQLITPRMMCVGFLSGGVDSCEGDSGGPLSSVEADGRIFQAGVVSWGDGCAQRNKPGVYTRLPLFRDWIKENTGV
3.83,,MTSP-1 protease domain Q38H/I41S/F60eS/Y60gW/ins97aV/F97D/T98P/F99L/C122S/G151H/Q175L/Q192E (enzyme) VVGGTDADEGEWPWQVSLHALGHGHSCGASLISPNWLVSAAHCYIDDRGSRWSDPTQWTAFLGLHDQSQRSAPGVQERRLKRIISHPFFNDDVPLDYDIALLELEKPAEYSSMVRPISLPDASHVFPAGKAIWVTGWGHTQYGGTHALILQKGEIRVINQTTCENLLPQLITPRMMCVGFLSGGVDSCEGDSGGPLSSVEADGRIFQAGVVSWGDGCAQRNKPGVYTRLPLFRDWIKENTGV
4.86,,MTSP-1 protease domain Q38H/I41S/D60bT/F60eS/Y60gW/ins97aV/F97D/T98P/F99L/C122S/Q175L/Q192E (enzyme) VVGGTDADEGEWPWQVSLHALGHGHSCGASLISPNWLVSAAHCYIDTRGSRWSDPTQWTAFLGLHDQSQRSAPGVQERRLKRIISHPFFNDDVPLDYDIALLELEKPAEYSSMVRPISLPDASHVFPAGKAIWVTGWGHTQYGGTGALILQKGEIRVINQTTCENLLPQLITPRMMCVGFLSGGVDSCEGDSGGPLSSVEADGRIFQAGVVSWGDGCAQRNKPGVYTRLPLFRDWIKENTGV
,13.9,MTSP-1 protease domain with C122S (enzyme) VVGGTDADEGEWPWQVSLHALGQGHICGASLISPNWLVSAAHCYIDDRGFRYSDPTQWTAFLGLHDQSQRSAPGVQERRLKRIISHPFFNDFTFDYDIALLELEKPAEYSSMVRPISLPDASHVFPAGKAIWVTGWGHTQYGGTGALILQKGEIRVINQTTCENLLPQQITPRMMCVGFLSGGVDSCQGDSGGPLSSVEADGRIFQAGVVSWGDGCAQRNKPGVYTRLPLFRDWIKENTGV
27.4,,MTSP-1 protease domain Q38V/I41G/F60eG/Y60gW/D96P/F97N/T98G/F99L/C122S/G151N/Q175L/Q192D (enzyme) VVGGTDADEGEWPWQVSLHALGVGHGCGASLISPNWLVSAAHCYIDDRGGRWSDPTQWTAFLGLHDQSQRSAPGVQERRLKRIISHPFFNPNGLDYDIALLELEKPAEYSSMVRPISLPDASHVFPAGKAIWVTGWGHTQYGGTNALILQKGEIRVINQTTCENLLPQLITPRMMCVGFLSGGVDSCDGDSGGPLSSVEADGRIFQAGVVSWGDGCAQRNKPGVYTRLPLFRDWIKENTGV
227,,MTSP-1 protease domain Q38Y/I41E/D60bS/F60eV/Y60gF/D96W/F97N/T98G/F99L/C122S/G151N/Q175L/Q192D (enzyme) VVGGTDADEGEWPWQVSLHALGYGHECGASLISPNWLVSAAHCYIDSRGVRFSDPTQWTAFLGLHDQSQRSAPGVQERRLKRIISHPFFNWNGLDYDIALLELEKPAEYSSMVRPISLPDASHVFPAGKAIWVTGWGHTQYGGTNALILQKGEIRVINQTTCENLLPQLITPRMMCVGFLSGGVDSCDGDSGGPLSSVEADGRIFQAGVVSWGDGCAQRNKPGVYTRLPLFRDWIKENTGV
5.06,,MTSP-1 protease domain Q38Y/I41A/D60bT/F60eG/Y60gW/D96V/F97N/T98G/F99L/C122S/G151H/Q175L/Q192D (enzyme) VVGGTDADEGEWPWQVSLHALGYGHACGASLISPNWLVSAAHCYIDTRGGRWSDPTQWTAFLGLHDQSQRSAPGVQERRLKRIISHPFFNVNGLDYDIALLELEKPAEYSSMVRPISLPDASHVFPAGKAIWVTGWGHTQYGGTHALILQKGEIRVINQTTCENLLPQLITPRMMCVGFLSGGVDSCDGDSGGPLSSVEADGRIFQAGVVSWGDGCAQRNKPGVYTRLPLFRDWIKENTGV
62.7,,MTSP-1 protease domain Q38K/I41G/F60eG/Y60gW/D96P/F97N/T98G/F99L/C122S/G151N/Q175L/Q192D (enzyme) VVGGTDADEGEWPWQVSLHALGKGHGCGASLISPNWLVSAAHCYIDDRGGRWSDPTQWTAFLGLHDQSQRSAPGVQERRLKRIISHPFFNPNGLDYDIALLELEKPAEYSSMVRPISLPDASHVFPAGKAIWVTGWGHTQYGGTNALILQKGEIRVINQTTCENLLPQLITPRMMCVGFLSGGVDSCDGDSGGPLSSVEADGRIFQAGVVSWGDGCAQRNKPGVYTRLPLFRDWIKENTGV

# More lines, now with the values behind:
Binder,EC50 hC3 cleavage [nM],EC50 of hC3 cleavage [nM]
MTSP-1 protease domain I41S/D60bT/F60eS/Y60gW/ins97aV/F97D/T98P/F99L/C122S/G151H/Q175L/Q192E (enzyme) VVGGTDADEGEWPWQVSLHALGQGHSCGASLISPNWLVSAAHCYIDTRGSRWSDPTQWTAFLGLHDQSQRSAPGVQERRLKRIISHPFFNDDVPLDYDIALLELEKPAEYSSMVRPISLPDASHVFPAGKAIWVTGWGHTQYGGTHALILQKGEIRVINQTTCENLLPQLITPRMMCVGFLSGGVDSCEGDSGGPLSSVEADGRIFQAGVVSWGDGCAQRNKPGVYTRLPLFRDWIKENTGV,6.33,
MTSP-1 Q38H/I41A/D60bT/F60eK/Y60gW/F97T/ins97aE/T98G/F99L/C122S/G151N/Q175L/Q192D (enzyme) VVGGTDADEGEWPWQVSLHALGHGHACGASLISPNWLVSAAHCYIDTRGKRWSDPTQWTAFLGLHDQSQRSAPGVQERRLKRIISHPFFNDTEGLDYDIALLELEKPAEYSSMVRPISLPDASHVFPAGKAIWVTGWGHTQYGGTNALILQKGEIRVINQTTCENLLPQLITPRMMCVGFLSGGVDSCDGDSGGPLSSVEADGRIFQAGVVSWGDGCAQRNKPGVYTRLPLFRDWIKENTGV,,14.4
MTSP-1 protease domain Q38H/I41S/D60bT/F60eS/Y60gW/F97D/ins97aA/T98P/F99L/C122S/G151H/Q175L/Q192E (enzyme) VVGGTDADEGEWPWQVSLHALGHGHSCGASLISPNWLVSAAHCYIDTRGSRWSDPTQWTAFLGLHDQSQRSAPGVQERRLKRIISHPFFNDDAPLDYDIALLELEKPAEYSSMVRPISLPDASHVFPAGKAIWVTGWGHTQYGGTHALILQKGEIRVINQTTCENLLPQLITPRMMCVGFLSGGVDSCEGDSGGPLSSVEADGRIFQAGVVSWGDGCAQRNKPGVYTRLPLFRDWIKENTGV,4.07,
MTSP-1 protease domain Q38H/D60bT/F60eS/Y60gW/ins97aV/F97D/T98P/F99L/C122S/G151H/Q175L/Q192E (enzyme) VVGGTDADEGEWPWQVSLHALGHGHICGASLISPNWLVSAAHCYIDTRGSRWSDPTQWTAFLGLHDQSQRSAPGVQERRLKRIISHPFFNDDVPLDYDIALLELEKPAEYSSMVRPISLPDASHVFPAGKAIWVTGWGHTQYGGTHALILQKGEIRVINQTTCENLLPQLITPRMMCVGFLSGGVDSCEGDSGGPLSSVEADGRIFQAGVVSWGDGCAQRNKPGVYTRLPLFRDWIKENTGV,66.7,
MTSP-1 protease domain Q38H/I41S/D60bT/F60eS/Y60gW/F97D/ins97aV/T98P/F99L/C122S/G151H/Q192E (enzyme) VVGGTDADEGEWPWQVSLHALGHGHSCGASLISPNWLVSAAHCYIDTRGSRWSDPTQWTAFLGLHDQSQRSAPGVQERRLKRIISHPFFNDDVPLDYDIALLELEKPAEYSSMVRPISLPDASHVFPAGKAIWVTGWGHTQYGGTHALILQKGEIRVINQTTCENLLPQQITPRMMCVGFLSGGVDSCEGDSGGPLSSVEADGRIFQAGVVSWGDGCAQRNKPGVYTRLPLFRDWIKENTGV,11.9,
MTSP-1 protease domain Q38H/I41A/D60bV/F60eR/Y60gW/F97D/F99L/C122S/G151N/Q175L/Q192D (enzyme) VVGGTDADEGEWPWQVSLHALGHGHACGASLISPNWLVSAAHCYIDVRGRRWSDPTQWTAFLGLHDQSQRSAPGVQERRLKRIISHPFFNDDTLDYDIALLELEKPAEYSSMVRPISLPDASHVFPAGKAIWVTGWGHTQYGGTNALILQKGEIRVINQTTCENLLPQLITPRMMCVGFLSGGVDSCDGDSGGPLSSVEADGRIFQAGVVSWGDGCAQRNKPGVYTRLPLFRDWIKENTGV,7.04,
MTSP-1 protease domain Q38H/I41S/D60bT/F60eG/Y60gW/D96V/F97N/T98G/F99L/C122S/G151N/Q175L/Q192D (enzyme) VVGGTDADEGEWPWQVSLHALGHGHSCGASLISPNWLVSAAHCYIDTRGGRWSDPTQWTAFLGLHDQSQRSAPGVQERRLKRIISHPFFNVNGLDYDIALLELEKPAEYSSMVRPISLPDASHVFPAGKAIWVTGWGHTQYGGTNALILQKGEIRVINQTTCENLLPQLITPRMMCVGFLSGGVDSCDGDSGGPLSSVEADGRIFQAGVVSWGDGCAQRNKPGVYTRLPLFRDWIKENTGV,4.47,
MTSP-1 protease domain Q38H/I41S/D60bT/F60eS/Y60gW/F97D/T98P/F99L/C122S/G151H/Q175L/Q192E (enzyme) VVGGTDADEGEWPWQVSLHALGHGHSCGASLISPNWLVSAAHCYIDTRGSRWSDPTQWTAFLGLHDQSQRSAPGVQERRLKRIISHPFFNDDPLDYDIALLELEKPAEYSSMVRPISLPDASHVFPAGKAIWVTGWGHTQYGGTHALILQKGEIRVINQTTCENLLPQLITPRMMCVGFLSGGVDSCEGDSGGPLSSVEADGRIFQAGVVSWGDGCAQRNKPGVYTRLPLFRDWIKENTGV,25.7,
MTSP-1 protease domain Q38H/I41S/D60bT/F60eG/D96Y/F97N/T98G/F99L/C122S/G151N/Q175L/Q192D (enzyme) VVGGTDADEGEWPWQVSLHALGHGHSCGASLISPNWLVSAAHCYIDTRGGRYSDPTQWTAFLGLHDQSQRSAPGVQERRLKRIISHPFFNYNGLDYDIALLELEKPAEYSSMVRPISLPDASHVFPAGKAIWVTGWGHTQYGGTNALILQKGEIRVINQTTCENLLPQLITPRMMCVGFLSGGVDSCDGDSGGPLSSVEADGRIFQAGVVSWGDGCAQRNKPGVYTRLPLFRDWIKENTGV,9.56,
